B1: TPR 5TU (parent)
chain: GGAUCUUCUCGAUCUAACAAAAAAGACAAAUCUGCCACAAAGCUUGAGAGCAUCUUCGGAUGCAGAGGCGGCAGCCUUCGGUGGCGCGAUAGCGCCAACGUUCUCAACUAUGACACGCAAAACGCGUGCUCCGUUGAAUGGAGUUUAUCAUG

This sample holds only a part of the variants without activity.

Variants of B1 are the subject of the series. Description: polymerase ribozyme fitness, log enrichment relative to wild type (log ratio); higher = more active; in vitro selection for triplet polymerase activity. In a few lines: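 Mutant libraries were PCR-built and transcribed for each subunit of a heterodimeric triplet polymerase ribozyme and selected for one round in triplicate at −7 °C, frozen, before gel excision of extended constructs and streptavidin-bead capture. Input and output libraries were Illumina-sequenced, keeping genotypes with ≥10 input reads and ≥1 read per output. Fitness is a logarithmic ratio of genotype to wild-type enrichment, in base 2, using inverse-variance-weighted replicate averages.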
As for A21C C72G A73U C93U C99G G126U, the “polymerase ribozyme fitness (log ratio)” value was at most -4.2.

Regarding A19U A21C C54U U134A, the “polymerase ribozyme fitness (log ratio)” value was at most -4.2.

As for A20G G59C G94C, the “polymerase ribozyme fitness (log ratio)” value is -0.672.

With A20C U55A A89G G94C C95A C108G C123G, the “polymerase ribozyme fitness (log ratio)” value was at most -4.2.

A20U A22U A52C G67A U127A: the “polymerase ribozyme fitness (log ratio)” value is at most -4.2.

Take A21C U56A: the “polymerase ribozyme fitness (log ratio)” value is -0.39.

For the variant A19U A22U A47C G80A G86A C87A C95U U104G A120U, the “polymerase ribozyme fitness (log ratio)” value is at most -4.2.

As to A19G G59U C85U C95A, the “polymerase ribozyme fitness (log ratio)” value is -1.78.

For the variant A19U G25U A49C U55G U56G C85U A98G A106G C118U G133A U145G, the “polymerase ribozyme fitness (log ratio)” value is at most -4.2.

On to A21C A26C C27U U44G A52G G58C U90A G92A G100U, for which the “polymerase ribozyme fitness (log ratio)” value was at most -4.2.

As for A21C A49U C54U C85G G117A G124U, the “polymerase ribozyme fitness (log ratio)” value is -3.06.

For the variant A19U A22C C93U U145A, the “polymerase ribozyme fitness (log ratio)” value was -1.22.

In the case of A21C C96U, the “polymerase ribozyme fitness (log ratio)” value was determined as 0.207.

Regarding A21G A24U U53A G94A, the “polymerase ribozyme fitness (log ratio)” value is -0.529.

A20C C87G G94C C99A A107U C108G: the “polymerase ribozyme fitness (log ratio)” value is at most -4.2.

In the case of A20U A30G A41G U45A U53G C96G, the “polymerase ribozyme fitness (log ratio)” value was at most -4.2.

For the variant A19U C99U G133C U144G, the “polymerase ribozyme fitness (log ratio)” value was -2.25.

Take A20C G50A C76G G80C A91U A98G: the “polymerase ribozyme fitness (log ratio)” value is at most -4.2.

Take A19U G50U: the “polymerase ribozyme fitness (log ratio)” value was -0.0269.

For A19U G50A, the “polymerase ribozyme fitness (log ratio)” value is -1.63.

Take A19U G71U G83C U146G: the “polymerase ribozyme fitness (log ratio)” value is at most -4.2.

Take A19U C57G C96G C116G: the “polymerase ribozyme fitness (log ratio)” value is -0.687.

Consider A20U A49U C93G C103U, for which the “polymerase ribozyme fitness (log ratio)” value was at most -4.2.

Consider A19U G34A A47U C76A C116U, for which the “polymerase ribozyme fitness (log ratio)” value is at most -4.2.

Take A20U A113C G133C: the “polymerase ribozyme fitness (log ratio)” value is at most -4.2.

With A21C G50C C63U C93G, the “polymerase ribozyme fitness (log ratio)” value is -1.78.

As to A20G U56A, the “polymerase ribozyme fitness (log ratio)” value was -0.723.

Regarding A21G C32G G34C U56A G59C U82G G88U C103G G140U, the “polymerase ribozyme fitness (log ratio)” value is at most -4.2.

For A19G G84U, the “polymerase ribozyme fitness (log ratio)” value is -2.39.

Turning to A19G G84A, the “polymerase ribozyme fitness (log ratio)” value is -1.52.

For the variant A19U U44A U53A A73U C85U G136A, the “polymerase ribozyme fitness (log ratio)” value is at most -4.2.

For the variant A19U U53A C85A, the “polymerase ribozyme fitness (log ratio)” value was -3.78.

A19U G80A: the “polymerase ribozyme fitness (log ratio)” value is -0.164.

A20C U56A: the “polymerase ribozyme fitness (log ratio)” value is -0.524.

For A20U A40C G94A A115U A119C, the “polymerase ribozyme fitness (log ratio)” value was -3.89.

Take A20U C54A G92U: the “polymerase ribozyme fitness (log ratio)” value was -3.48.

For the variant A20U A40C G80U G83A C99U G133U A142G U145C, the “polymerase ribozyme fitness (log ratio)” value was at most -4.2.

As to A20C A97G, the “polymerase ribozyme fitness (log ratio)” value was -0.83.

Take A20U A41G A49U A52C G86C C96G: the “polymerase ribozyme fitness (log ratio)” value is at most -4.2.

A19U C38U G50A C79A: the “polymerase ribozyme fitness (log ratio)” value is at most -4.2.

On to A19U G46A C51U A91G G124U U139A, for which the “polymerase ribozyme fitness (log ratio)” value was at most -4.2.

With A20C G48U G59A A119U U135A U146C, the “polymerase ribozyme fitness (log ratio)” value was -2.07.

For A19G A91C C116A G141A U145G, the “polymerase ribozyme fitness (log ratio)” value is at most -4.2.

On to A21C C38U G46C U53G G88U A122U G126A U135C C149G, for which the “polymerase ribozyme fitness (log ratio)” value was at most -4.2.

For A19U A30U U56A G62C C76U, the “polymerase ribozyme fitness (log ratio)” value is at most -4.2.

Consider A19U A28G G50A G68A G94U, for which the “polymerase ribozyme fitness (log ratio)” value is at most -4.2.

Take A20U A29G G46C G50C A66U G83A: the “polymerase ribozyme fitness (log ratio)” value is at most -4.2.

With A19G G58C G59C, the “polymerase ribozyme fitness (log ratio)” value stood at 0.18.

Regarding A21G C57A G74A C76G C87U G124U, the “polymerase ribozyme fitness (log ratio)” value is at most -4.2.

For the variant A20U A41C G50A G141A, the “polymerase ribozyme fitness (log ratio)” value is -4.03.

In the case of A20U U45A G124A, the “polymerase ribozyme fitness (log ratio)” value was -3.98.

A20C A39C A40G G84U G88U C93A C96A: the “polymerase ribozyme fitness (log ratio)” value was at most -4.2.

With A21G C85A, the “polymerase ribozyme fitness (log ratio)” value was -1.12.

In the case of A21G C85U, the “polymerase ribozyme fitness (log ratio)” value is -0.132.

As for A19U G136C, the “polymerase ribozyme fitness (log ratio)” value was -3.86.

Consider A21C G81C G88A A107G, for which the “polymerase ribozyme fitness (log ratio)” value was at most -4.2.

Take A20G A37U U111G: the “polymerase ribozyme fitness (log ratio)” value is at most -4.2.

For A19U C54A G70A U82A U134G U139A, the “polymerase ribozyme fitness (log ratio)” value is at most -4.2.

Take A19U A20C A73G G92U C116A: the “polymerase ribozyme fitness (log ratio)” value was -0.142.

In the case of A19U G94C, the “polymerase ribozyme fitness (log ratio)” value was -0.449.

Take A19G C27U: the “polymerase ribozyme fitness (log ratio)” value was -1.17.

Regarding A21C U45A A64G G92A, the “polymerase ribozyme fitness (log ratio)” value is -3.46.

With A20C A52G A142G, the “polymerase ribozyme fitness (log ratio)” value was -2.02.

In the case of A20C A22C A39G G71A C85A G94C, the “polymerase ribozyme fitness (log ratio)” value was at most -4.2.

Regarding A21C C87U, the “polymerase ribozyme fitness (log ratio)” value is 0.0419.

Take A20G A26U U31G A40G C125G U151C G152A: the “polymerase ribozyme fitness (log ratio)” value is at most -4.2.

With A19U A30U U55G G59A G86U A150U, the “polymerase ribozyme fitness (log ratio)” value is at most -4.2.

In the case of A20C A28U A49C U61A G92A A113G C149G, the “polymerase ribozyme fitness (log ratio)” value was at most -4.2.

On to A19U A73U, for which the “polymerase ribozyme fitness (log ratio)” value is -0.608.

Turning to A20C U55G G67U C72A C85U, the “polymerase ribozyme fitness (log ratio)” value was at most -4.2.

As to A20C G94U G152C, the “polymerase ribozyme fitness (log ratio)” value is -2.76.

With A21G C132G, the “polymerase ribozyme fitness (log ratio)” value was -3.9.

On to A20C C103G, for which the “polymerase ribozyme fitness (log ratio)” value is -1.28.

For the variant A20G G124U, the “polymerase ribozyme fitness (log ratio)” value is -0.645.

Regarding A20U C54G, the “polymerase ribozyme fitness (log ratio)” value is -2.64.

On to A20U G50A C85U, for which the “polymerase ribozyme fitness (log ratio)” value is -3.83.

With A19U A39G G74U C85G G128C C129U, the “polymerase ribozyme fitness (log ratio)” value is at most -4.2.

Regarding A19G C85G, the “polymerase ribozyme fitness (log ratio)” value was -2.84.

As to A19G C85U, the “polymerase ribozyme fitness (log ratio)” value was -1.3.

Consider A20G G117A, for which the “polymerase ribozyme fitness (log ratio)” value is -0.0564.

Regarding A19G C123G, the “polymerase ribozyme fitness (log ratio)” value is -1.22.

In the case of A20C G83C C96G, the “polymerase ribozyme fitness (log ratio)” value is -1.83.

For A19U G46A G58C A97U U134A, the “polymerase ribozyme fitness (log ratio)” value is at most -4.2.

In the case of A19U G143U, the “polymerase ribozyme fitness (log ratio)” value is -2.25.

For the origin of these results see the RNAGym collection of RNA variant scans (doi:10.1073/pnas.2313332121).
